Measured values as given in paper PMC10448054.

Target: N-protein of the wild-type Cne PRP8 S0 split mini-intein with C1A, maltose-binding protein fused to N-intein (MI^A N) (Cryptococcus neoformans)
Assay: SPR; Biacore T100; N-proteins (WTNa, ENa) immobilised on a CM5 chip; C-terminal fusion proteins flowed at different concentrations in 10 mM HEPES, 150 mM NaCl, 1 mM EDTA, pH 7.4; KD = kd/ka

C-protein of the wild-type Cne PRP8 S0 split mini-intein with N185A, C-intein fused to thioredoxin (I^A CT) (domain or fragment)
Ka: 608000 M⁻¹
Kd: 1650 nM
koff: 0.0082 s⁻¹
kon: 4990 M⁻¹ s⁻¹
